In publication PMC8041770:
Values belong to the substance of their own block, whether it stands above or below them.

How the values were obtained:
[1] = molecular target: yeast-displayed eLIFR CBM I–Ig-like domains ('VPRVVAID') (human); test: flow cytometry on cells; LIFR constructs displayed on yeast (EBY100), soluble tagged cytokine (LIF-His and others) in PBS with 1 mg/ml BSA, detected by antibody to the tag; gated on c-myc-positive yeast; apparent affinity by non-linear regression
[2] = molecular target: yeast-displayed mouse LIFR (mouse) (UniProt P42703); test: flow cytometry on cells; receptor displayed on yeast, soluble cytokine titrated in PBS with 1 mg/ml BSA; bound cytokine detected by fluorescent antibodies; apparent Kd by non-linear regression
[3] = molecular target: yeast-displayed human LIF (hLIF, Ser23 to Phe203) (human) (UniProt P15018); test: not stated; Supplementary Fig. 7b, not shown; told only in the discussion
[4] = molecular target: recombinant human LIF, histidine-tagged (hLIF-His) (UniProt P15018); test: flow cytometry of yeast-displayed LIFR variants; settings: read off a plot

mLIFR-Fc (mouse LIFR CBM I–Ig-like–CBM II fused to an antibody Fc domain), sequence (P42703 44-529): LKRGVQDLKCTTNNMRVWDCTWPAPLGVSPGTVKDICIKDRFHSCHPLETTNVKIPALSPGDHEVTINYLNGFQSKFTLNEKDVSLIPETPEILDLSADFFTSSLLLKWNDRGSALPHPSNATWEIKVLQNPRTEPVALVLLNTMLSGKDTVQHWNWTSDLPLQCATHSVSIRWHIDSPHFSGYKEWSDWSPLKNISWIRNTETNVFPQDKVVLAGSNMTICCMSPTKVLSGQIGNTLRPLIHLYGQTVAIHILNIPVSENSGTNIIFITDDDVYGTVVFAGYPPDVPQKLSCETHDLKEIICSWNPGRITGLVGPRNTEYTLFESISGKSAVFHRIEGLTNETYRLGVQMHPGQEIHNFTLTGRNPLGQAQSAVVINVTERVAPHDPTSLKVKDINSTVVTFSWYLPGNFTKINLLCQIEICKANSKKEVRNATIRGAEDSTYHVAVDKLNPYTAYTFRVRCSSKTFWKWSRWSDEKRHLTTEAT
yeast-displayed mouse LIFR (mouse), sequence (P42703 44-1092): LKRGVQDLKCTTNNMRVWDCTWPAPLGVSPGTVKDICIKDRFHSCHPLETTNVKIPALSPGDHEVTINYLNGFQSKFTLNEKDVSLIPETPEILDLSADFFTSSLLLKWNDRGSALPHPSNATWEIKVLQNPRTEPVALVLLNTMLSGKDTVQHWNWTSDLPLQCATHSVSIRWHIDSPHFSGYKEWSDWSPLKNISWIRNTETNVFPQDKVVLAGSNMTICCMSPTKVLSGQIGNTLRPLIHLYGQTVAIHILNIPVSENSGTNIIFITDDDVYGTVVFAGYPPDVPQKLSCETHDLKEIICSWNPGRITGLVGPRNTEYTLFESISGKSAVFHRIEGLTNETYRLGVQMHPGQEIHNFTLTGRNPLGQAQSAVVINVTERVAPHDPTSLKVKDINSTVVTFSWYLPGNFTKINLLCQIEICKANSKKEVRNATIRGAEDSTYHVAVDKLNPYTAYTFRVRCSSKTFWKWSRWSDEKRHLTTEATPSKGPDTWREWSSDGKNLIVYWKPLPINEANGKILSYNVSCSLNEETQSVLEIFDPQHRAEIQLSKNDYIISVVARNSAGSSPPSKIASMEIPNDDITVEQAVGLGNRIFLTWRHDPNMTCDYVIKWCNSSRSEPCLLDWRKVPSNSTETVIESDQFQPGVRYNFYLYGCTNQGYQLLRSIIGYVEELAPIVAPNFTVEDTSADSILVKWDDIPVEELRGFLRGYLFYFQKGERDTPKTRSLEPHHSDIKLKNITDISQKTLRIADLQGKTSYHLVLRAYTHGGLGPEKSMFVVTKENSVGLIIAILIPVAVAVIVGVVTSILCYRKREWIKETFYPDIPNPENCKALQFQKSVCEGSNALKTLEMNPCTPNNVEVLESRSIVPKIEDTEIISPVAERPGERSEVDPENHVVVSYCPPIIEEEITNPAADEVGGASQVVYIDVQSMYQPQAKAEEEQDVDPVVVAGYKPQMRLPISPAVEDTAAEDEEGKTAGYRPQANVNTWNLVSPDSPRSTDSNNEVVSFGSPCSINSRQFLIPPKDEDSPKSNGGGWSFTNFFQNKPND
yeast-displayed wild-type human LIFR CBM I–Ig-like domains (Gln45 to Gln337), sequence (P42702 45-337, stated change not applied): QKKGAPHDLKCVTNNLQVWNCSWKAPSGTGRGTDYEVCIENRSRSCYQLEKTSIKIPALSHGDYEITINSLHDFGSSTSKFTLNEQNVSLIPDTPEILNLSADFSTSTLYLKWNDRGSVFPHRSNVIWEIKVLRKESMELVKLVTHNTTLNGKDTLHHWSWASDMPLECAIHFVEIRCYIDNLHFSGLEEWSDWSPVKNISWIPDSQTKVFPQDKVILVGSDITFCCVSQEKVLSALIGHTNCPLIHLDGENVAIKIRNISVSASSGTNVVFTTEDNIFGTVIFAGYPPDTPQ

- Kd [1]: 40 pM
Substance: recombinant human LIF, histidine-tagged (hLIF-His) (from UniProt P15018 23-202) (ligand)

- Kd [2]: 1.1 pM
Substance: recombinant human LIF-His (from UniProt P15018 23-202) (ligand)

- Kd [3]: 1 pM
Substance: mLIFR-Fc (mouse LIFR CBM I–Ig-like–CBM II fused to an antibody Fc domain) (from UniProt P42703 44-529) (Fc fusion)

- ratio to parent [4]: 5.2
Substance: yeast-displayed wild-type human LIFR CBM I–Ig-like domains (Gln45 to Gln337) (from UniProt P42702) PRDSAID
